Consider 1 protein from US8304206B2, “Mass spectrometry assays for identifying compounds that activate deacetylases” (Sirtris Pharmaceuticals, Inc., priority 2005, dated 2012).

Values joined by “and” are separate entries in the source; they are usually repeats but may differ in a detail not shown here. Equal values may be shown once.

Substrate in the series: CCCC[C@H](NC(=O)[C@H](CCCCNC(C)=O)NC(=O)[C@H](CO)NC(=O)[C@H](Cc1c[nH]cn1)NC(=O)[C@H](CO)NC(=O)[C@H](CO)NC(=O)[C@@H](NC(=O)[C@H](CO)NC(=O)[C@H](CCC(N)=O)NC(=O)CNC(=O)[C@H](CCCCNC(=O)CCCC[C@@H]1SC[C@@H]2NC(=O)N[C@@H]21)NC(=O)[C@H](CCC(=O)O)NC(=O)[C@H](CCC(=O)O)NC(C)=O)[C@@H](C)O)C(=O)N[C@@H](CO)C(=O)N[C@H](C(=O)N[C@@H](CCC(=O)O)C(=O)NCC(=O)N[C@@H](CCCCNC(=O)c1ccc2c(c1)C(=O)OC21c2ccc(N(C)C)cc2Oc2cc(N(C)C)ccc21)C(=O)N[C@@H](CCC(=O)O)C(=O)N[C@@H](CCC(=O)O)C(N)=O)[C@@H](C)O
Description: SIRT1 Km for Acetylated Peptide Substrate (mass spectrometry). The class given is biochemical, human. Particulars: pH 8.0, 25.0 °C. How it is done: Briefly, 1 μL of vehicle (DMSO) was added to each well of a Costar 96-well clear round bottom assay plate and 10 μL of 10% formic acid was added to all of the wells in row A. The Acetylated Peptide Substrate was serially diluted. Wells A2, A3, A4, A5, A6, A7, A8, A9, A10, A11 and A12 of a Costar 2 mL 96 well Assay Block were filled with 600 μL of Substrate Dilution Working Solution (SDWS; 4 mM NAD^+, 50 mM Tris HCl pH 8.0, 137 mM NaCl, 2.7 mM KCl, 1 mM MgCl2, 5 mM DTT, and 0.05% BSA). […] The APSTD-WS was serially diluted into SDWS by transferring 600 μL of APSTD-WS from well A1 to […] of the Costar 2 mL 96 well Assay Block. The solution was mixed 5 times and the process was continued by moving across row A, until well A12 was reached.
The Enzyme Working Solution (20 nM SIRT1, 50 mM Tris HCl pH 8.0, 137 mM NaCl, 2.7 mM KCl, 1 mM MgCl2, 5 mM DTT, 0.05% BSA) was prepared. […]
At 0, 3, 6, 9, 12, 15, 20, and 25 minutes, the reaction was stopped with 10% formic acid and the conversion of substrate to product was determined by mass spectrometry.
SIRT1 enzyme activity at 12 concentrations of SIRT1 Acetylated Peptide Substrate was monitored by comparing the percent conversion of Acetylated Peptide Substrate to Deacetylated Peptide Product over time. The reaction rate at each substrate concentration was determined as the slope of the product formation versus time plot in the linear range. […]

B1: SIRT1 (Homo sapiens) (protein)
chain: MADEAALALQPGGSPSAAGADREAASSPAGEPLRKRPRRDGPGLERSPGEPGGAAPEREVPAAARGCPGAAAAALWREAEAEAAAAGGEQEAQATAAAGEGDNGPGLQGPSREPPLADNLYDEDDDDEGEEEEEAAAAAIGYRDNLLFGDEIITNGFHSCESDEEDRASHASSSDWTPRPRIGPYTFVQQHLMIGTDPRTILKDLLPETIPPPELDDMTLWQIVINILSEPPKRKKRKDINTIEDAVKLLQECKKIIVLTGAGVSVSCGIPDFRSRDGIYARLAVDFPDLPDPQAMFDIEYFRKDPRPFFKFAKEIYPGQFQPSLCHKFIALSDKEGKLLRNYTQNIDTLEQVAGIQRIIQCHGSFATASCLICKYKVDCEAVRGDIFNQVVPRCPRCPADEPLAIMKPEIVFFGENLPEQFHRAMKYDKDEVDLLIVIGSSLKVRPVALIPSSIPHEVPQILINREPLPHLHFDVELLGDCDVIINELCHRLGGEYAKLCCNPVKLSEITEKPPRTQKELAYLSELPPTPLHVSEDSSSPERTSPPDSSVIVTLLDQAAKSNDDLDVSESKGCMEEKPQEVQTSRNVESIAEQMENPDLKNVGSSTGEKNERTSVAGTVRKCWPNRVAKEQISRRLDGNQYLFLPPNRYIFHGAEVYSDSEDDVLSSSSCGSNSDSGTCQSPSLEEPMEDESEIEEFYNGLEDEPDVPERAGGAGFGTDGDDQEAINEAISVKQEVTDMNYPSNKS
notes: The SirT1 gene was cloned into a T7-promoter containing vector and transformed into BL21(DE3); His-tag (N); made in house; host or cells: E. coli BL21(DE3)
Broadly, the Km is the concentration of substrate that gives half-maximal velocity. For B1, the Michaelis-Menten constant (Km) is 11.6 µM (other: Sirt1, Mass Spectrometry, present invention); 11.2 µM and 11.9 µM (other: single replicate plates, 2 mM NAD+, 1% DMSO).
